Positions count from the first letter of the chain named. Names may count otherwise. “And” between values parts separate entries of the source, which are not always exact repeats. Identical values can stand only once. Like-named read-outs stand apart in the source and are kept apart here.
Experiments:
human CXCR2 [1] = biological target: T1, human CXCR2 (human, UniProt P25025 1-360); experiment: cell-based or functional assay
T1 sequence: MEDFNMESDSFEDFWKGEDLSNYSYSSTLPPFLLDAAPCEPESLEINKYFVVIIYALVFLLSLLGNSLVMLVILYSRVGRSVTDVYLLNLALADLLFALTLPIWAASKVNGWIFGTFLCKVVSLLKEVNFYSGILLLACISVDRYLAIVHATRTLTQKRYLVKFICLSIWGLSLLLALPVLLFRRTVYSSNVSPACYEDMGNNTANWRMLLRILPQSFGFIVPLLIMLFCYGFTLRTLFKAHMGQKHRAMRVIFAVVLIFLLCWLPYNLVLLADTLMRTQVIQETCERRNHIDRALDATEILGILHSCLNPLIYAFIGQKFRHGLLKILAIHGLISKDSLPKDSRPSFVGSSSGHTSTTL

human CXCR2 [2] = biological target: T1, human CXCR2; experiment: cell-based or functional assay; remark: listed apart in the source
human CXCR1 = biological target: T2, human CXCR1 (human, UniProt P25024 1-350); experiment: flow cytometry, transfected Expi293F cells
T2 sequence: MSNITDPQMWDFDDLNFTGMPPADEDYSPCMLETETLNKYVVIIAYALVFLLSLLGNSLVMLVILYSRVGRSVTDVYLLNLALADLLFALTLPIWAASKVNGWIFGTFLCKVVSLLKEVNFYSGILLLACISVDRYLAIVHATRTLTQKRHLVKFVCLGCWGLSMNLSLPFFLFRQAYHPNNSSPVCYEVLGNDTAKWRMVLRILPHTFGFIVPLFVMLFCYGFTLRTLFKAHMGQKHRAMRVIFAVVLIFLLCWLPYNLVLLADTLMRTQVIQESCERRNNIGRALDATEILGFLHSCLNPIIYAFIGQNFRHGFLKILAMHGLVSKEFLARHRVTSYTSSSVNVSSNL
Experimental: (§1) Harvested cells were resuspended in FACS buffer (1×PBS+0.5% (w/v) bovine serum albumin (BSA)+2 mM EDTA pH 7.2). Approximately 2×10⁵ cells were added per well in a 96-well round-bottomed plate. Cells were pelleted by centrifugation at 400 g for 5 mins at 4° C. and supernatants discarded. 25 μL of each test antibody or control antibody was added to the cells and incubated for 30 minutes at 4° C. Cells were washed twice in 100 μL FACS buffer followed by centrifugation at 400 g for 5 mins at 4° C.
(§2) For detection, 50 μL of secondary antibody (Table 2) was added to relevant samples. Commercially available antibodies that bound to transfected CXCR family members were used as positive controls to ensure that the cells were expressing the receptors. Cells were washed twice in 200 μL of FACS buffer followed by centrifugation at 400 g for 5 mins at 4° C. Before sample acquisition, cells were resuspended in 100 μL of FACS buffer. Samples were acquired using the high throughput sampler on a FACSCanto™ II cytometer (Beckton-Dickinson).
(§3) These antibody variable regions were then generated by gene synthesis and subcloned into mammalian expression vectors as described in General Methods. Antibodies were produced by co-expression of heavy and light chain plasmids in Expi293F™ cells and purified by protein A column chromatography as described in General Methods. Where several heavy and/or light chains were identified from the same hybridoma cells, each heavy chain was paired with each light chain and the resulting antibodies given suffix a, b, c, etc. Purified antibodies were desalted into Sorensen's PBS pH 5.8 and tested by flow cytometry for binding to Expi293F™ cells transfected with human CXCR2 or human CXCR1 and mock transfected Expi293F™ cells.

human CXCR2 [3] = biological target: T1, human CXCR2; experiment: flow cytometry, CXCR2-transfected Expi293F cells
Experimental: as §1, §2
Each heavy chain was co-expressed with each light chain to produce a sequence optimized antibody variant. Antibodies were purified and tested for CXCR2 binding activity as described in General Methods.

human CXCR2 [4] = biological target: T1, human CXCR2; experiment: flow cytometry, CXCR2-transfected Expi293F cells; remark: listed apart in the source
Experimental: as §1, §2
A further six heavy chain combinational variants comprising four or more amino acid substitutions were produced as provided in Table 12. […] Each heavy chain was co-expressed with light chain c (SEQ ID NO:110) to produce an antibody variant. Antibodies were purified and tested for CXCR2 binding activity as described in General Methods.

cynomolgus monkey CXCR2 = biological target: T3, cynomolgus monkey CXCR2 (cynomolgus monkey, UniProt Q28519 3-353 (rhesus entry)); experiment: flow cytometry, native CXCR2 on cynomolgus PBMC preparations
T3 construct: native on cynomolgus blood cells in the entries below; also called cynomolgus CXCR2
T3 chain: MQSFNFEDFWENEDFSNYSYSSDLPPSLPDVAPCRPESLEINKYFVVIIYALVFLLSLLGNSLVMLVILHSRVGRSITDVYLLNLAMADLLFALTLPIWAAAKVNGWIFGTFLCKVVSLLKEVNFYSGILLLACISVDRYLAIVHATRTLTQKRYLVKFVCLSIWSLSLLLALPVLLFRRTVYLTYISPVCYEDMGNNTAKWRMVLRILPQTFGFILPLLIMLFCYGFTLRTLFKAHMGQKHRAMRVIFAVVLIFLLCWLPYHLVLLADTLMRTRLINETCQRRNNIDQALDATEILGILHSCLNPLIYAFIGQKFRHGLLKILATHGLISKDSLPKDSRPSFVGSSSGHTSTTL
Experimental: Whole human buffy coat, PBMC enriched fractions prepared from human peripheral blood buffy coat or cynomolgus monkey whole blood was used for analysis of antibody binding activity by flow cytometry. Briefly, blood was untreated or diluted 1:1 in sterile filtered room temperature phosphate-buffered saline (PBS). 30 mL samples were layered over 15 mL Lymphoprep™ (Stem Cell Technologies, cat #07851). Peripheral blood mononuclear cells (PBMC) were enriched by room temperature centrifugation at 700 g for 30 minutes with no braking. The PBMC layer was isolated and cells washed in PBS containing 2 mM EDTA with low speed centrifugation at 200 g, to remove platelet contamination. Whole blood or PBMC enriched cell fractions were resuspended in red blood cell lysing solution (BioLegend, 420301). Viable cell counts were determined and cells resuspended at 1×10⁷ cells per mL in FACS buffer (1×PBS+0.5% (w/v) BSA+2 mM EDTA pH 7.2).
Flow cytometry binding assays using whole blood or PBMC enriched preparations: Binding assays to detect CXCR2 on blood neutrophil populations using test antibodies were performed essentially as described for assays using transiently transfected Expi293F™ cells. […] Matched isotype control antibodies were included for comparison. […] Neutrophil populations were identified by characteristic granularity and size, and positive binding of commercially available antibodies against CD10 (Biolegend, clone Hl10a, catalogue number 312204). Cells were washed and fixed (BioLegend Fixation buffer, 420801) prior to analysis. The level of fluorescence on the cell surface was measured by flow cytometry.

human CXCR2 [5] = biological target: T1, human CXCR2; experiment: cell-based or functional assay; remark: listed apart in the source
human CXCR2 [6] = biological target: T1, human CXCR2; experiment: cell-based or functional assay; remark: listed apart in the source
human CXCR2 [7] = biological target: T1, human CXCR2; experiment: cell-based or functional assay; remark: listed apart in the source
human CXCR2 [8] = biological target: T1, human CXCR2; experiment: cell-based or functional assay; remark: listed apart in the source
human CXCR2 [9] = biological target: T1, human CXCR2; experiment: flow cytometry, transfected Expi293F cells
Experimental: as §1, §2, §3

B1: BKO-4A8 (antibody, human IgG4 S228P, lambda)
heavy: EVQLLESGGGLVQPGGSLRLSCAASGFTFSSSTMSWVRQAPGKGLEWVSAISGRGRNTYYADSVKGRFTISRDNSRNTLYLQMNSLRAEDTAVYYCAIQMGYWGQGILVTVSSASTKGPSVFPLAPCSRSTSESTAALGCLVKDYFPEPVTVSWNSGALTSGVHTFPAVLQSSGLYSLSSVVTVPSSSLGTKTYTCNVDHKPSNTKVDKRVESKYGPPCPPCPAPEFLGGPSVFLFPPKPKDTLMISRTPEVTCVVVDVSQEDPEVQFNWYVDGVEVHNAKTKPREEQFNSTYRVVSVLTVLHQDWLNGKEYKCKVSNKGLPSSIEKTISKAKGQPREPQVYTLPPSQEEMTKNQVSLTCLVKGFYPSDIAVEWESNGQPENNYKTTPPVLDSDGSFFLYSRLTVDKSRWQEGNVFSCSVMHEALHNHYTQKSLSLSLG
light: QSALTQPPSASGSPGQSVTISCIGTSSDVGGYNYVSWYQQHPDKAPKLMIYEVNKRPSGVPDRFSGSKSGNTASLTVSGLQAEDEADYYCSSYAGNNNFGVFGGGTKLTVLGQPKAAPSVTLFPPSSEELQANKATLVCLISDFYPGAVTVAWKADSSPVKAGVETTTPSKQSNNKYAASSYLSLTPEQWKSHRSYSCQVTHEGSTVEKTVAPTECS
notes: recombinant human IgG4 S228P, lambda; also called BKO-4A8 IgG4; parental BKO-4A8
IC50, CXCL1, Tango assay (human CXCR2 [1]): 0.177 nM
IC50, CXCL8, Tango assay (human CXCR2 [1]): 0.112 nM
CXCL1 IC50, Tango assay (human CXCR2 [2]): 94 nM
CXCL8 IC50, Tango assay (human CXCR2 [2]): 0.66 nM
binding result (human CXCR1): no binding
EC50 (human CXCR2 [3]): 0.4 nM and 0.5 nM and 0.6 nM and 0.9 nM
EC50 (human CXCR2 [4]): 1.58 nM and 3.82 nM
binding result (cynomolgus monkey CXCR2): binds

B2: BKO-4A8-104c (antibody, human IgG4 S228P, lambda, V domains shown)
VH: EVQLLESGGGLVQPGGSLRLSCAASGFTFSSSTQSWVRQPPGKGLEWVSAISGSGGSTYYADSVKGRFTISRDNSKNTLYLQMNSLRAEDTAVYYCAIQKGYWGQGILVTVSS
VL: QSALTQPPSASGSPGQSVTISCIGTSSDVGGYNYVSWYQQHPGKAPKLMIYEVSKRPSGVPDRFSGSKSGNTASLTVSGLQAEDEADYYCSSYAGSNNFGVFGGGTKLTVLG
notes: IgG4 S228P, lambda
CXCL1 Fold Improvement over 4A8 WT (human CXCR2 [2]): 0.43 fold
CXCL1 IC50, Tango assay (human CXCR2 [2]): 2.17 nM
CXCL8 Fold Improvement over 4A8 WT (human CXCR2 [2]): 0.88 fold
CXCL8 IC50, Tango assay (human CXCR2 [2]): 0.75 nM
EC50 (human CXCR2 [4]): 6.45 nM
Max binding (MFI Percent of 4A8 WT) (human CXCR2 [4]): 54%
Max binding (MFI) (human CXCR2 [4]): 45100 MFI

B3: BKO-4A8-101c (antibody, human IgG4 S228P, lambda, V domains shown)
VH: B2 VH with S54R, G56R, K100A
VL: B2 VL
CXCL1 Fold Improvement over 4A8 WT (human CXCR2 [2]): 1.49 fold
CXCL1 IC50, Tango assay (human CXCR2 [2]): 0.63 nM
CXCL8 Fold Improvement over 4A8 WT (human CXCR2 [2]): 2.39 fold
CXCL8 IC50, Tango assay (human CXCR2 [2]): 0.28 nM
IC50 mean, Hu CXCL1, Tango β-arrestin (human CXCR2 [5]): 0.27 nM
IC50 mean, Hu CXCL2, Tango β-arrestin (human CXCR2 [5]): 0.36 nM
IC50 mean, Hu CXCL3, Tango β-arrestin (human CXCR2 [5]): 0.39 nM
IC50 mean, Hu CXCL5, Tango β-arrestin (human CXCR2 [5]): 0.3 nM
IC50 mean, Hu CXCL6, Tango β-arrestin (human CXCR2 [5]): 0.28 nM
IC50 mean, Hu CXCL7, Tango β-arrestin (human CXCR2 [5]): 0.44 nM
IC50 mean, Hu CXCL8, Tango β-arrestin (human CXCR2 [5]): 0.34 nM
IC50 mean, Hu CXCL1, calcium flux (human CXCR2 [6]): 1.55 nM
IC50 mean, Hu CXCL2, calcium flux (human CXCR2 [6]): 1.62 nM
IC50 mean, Hu CXCL3, calcium flux (human CXCR2 [6]): 0.63 nM
IC50 mean, Hu CXCL5, calcium flux (human CXCR2 [6]): 1.03 nM
IC50 mean, Hu CXCL6, calcium flux (human CXCR2 [6]): 1.71 nM
IC50 mean, Hu CXCL7, calcium flux (human CXCR2 [6]): 2.14 nM
CXCL1 IC50, β-arrestin recruitment (human CXCR2 [7]): 0.38 nM
CXCL5 IC50, β-arrestin recruitment (human CXCR2 [7]): 0.34 nM
CXCL8 IC50, β-arrestin recruitment (human CXCR2 [7]): 0.34 nM
CXCL1 IC50, calcium flux (human CXCR2 [8]): 1.47 nM
EC50 (human CXCR2 [4]): 3.05 nM
Max binding (MFI Percent of 4A8 WT) (human CXCR2 [4]): 89%
Max binding (MFI) (human CXCR2 [4]): 55000 MFI

B4: BKO-4A8-103c (antibody, human IgG4 S228P, lambda, V domains shown)
VH: B2 VH with K100M
VL: B2 VL
notes: IgG4 S228P, lambda
CXCL1 Fold Improvement over 4A8 WT (human CXCR2 [2]): 2.55 fold
CXCL1 IC50, Tango assay (human CXCR2 [2]): 2.4 nM
CXCL8 Fold Improvement over 4A8 WT (human CXCR2 [2]): 0.53 fold
CXCL8 IC50, Tango assay (human CXCR2 [2]): 1.25 nM
EC50 (human CXCR2 [4]): 5.15 nM
Max binding (MFI Percent of 4A8 WT) (human CXCR2 [4]): 72%
Max binding (MFI) (human CXCR2 [4]): 44400 MFI

B5: BKO-4A8-105c (antibody, human IgG4 S228P, lambda, V domains shown)
VH: B2 VH with K100A
VL: B2 VL
notes: IgG4 S228P, lambda
CXCL1 Fold Improvement over 4A8 WT (human CXCR2 [2]): 0.24 fold
CXCL1 IC50, Tango assay (human CXCR2 [2]): 4 nM
CXCL8 Fold Improvement over 4A8 WT (human CXCR2 [2]): 0.36 fold
CXCL8 IC50, Tango assay (human CXCR2 [2]): 1.85 nM
EC50 (human CXCR2 [4]): 5.73 nM
Max binding (MFI Percent of 4A8 WT) (human CXCR2 [4]): 52%
Max binding (MFI) (human CXCR2 [4]): 42700 MFI

B6: BKO-8G3_b (antibody, human IgG4 S228P, lambda, V domains shown)
VH: B2 VH with S32Y, T33A, Q34M, P40A, S52T, N74K, Q99R, K100L, I107S
VL: B2 VL with I23T, A45V, M49V
notes: recombinant human IgG4 S228P, lambda
binding result (human CXCR2 [9]): binds
binding result (human CXCR1): no binding
binding result (cynomolgus monkey CXCR2): binds

B7: BKO-9C3_a (antibody, human IgG4 S228P, lambda, V domains shown)
VH: B2 VH with L4V, S30R, S32Y, T33A, Q34M, P40A, N74K, K100L, I107T
VL: B2 VL with T19I, I23T, A45V, S91T
notes: as for B6
binding result (human CXCR2 [9]): binds
binding result (human CXCR1): no binding
binding result (cynomolgus monkey CXCR2): binds
